Entries after “also recorded” stand apart in the source; their conditions may differ.
B1: BMP4: human recombinant bone morphogenetic protein 4 (R&D Systems) (protein, UniProt P12644 293-408, looked up)
Bone morphogenetic protein 4: SPKHHSQRARKKNKNCRRHSLYVDFSDVGWNDWIVAPPGYQAFYCHGDCPFPLADHLNSTNHAIVQTLVNSVNSSIPKACCVPTELSAISMLYLDEYDKVVLKNYQEMVVEGCGCR

Legend:
[1] = test system: regenerated adipocytes in wounds; assay: Adipocyte regeneration in large excisional skin wounds (adipocyte/hair follicle index, Oil Red O); format: in vivo, mouse; settings: for Adipocyte/hair index (new adipocyte/follicle ratio): WT mice treated during wound healing, post-wounding Day 28; for regeneration of new adipocytes in hair-bearing wounds: treatment during wound healing (2 mg/kg), hair follicles regenerate normally
Procedure: (§1) All animal experiments were carried out in accordance to with the guidelines of the IACUC of the University of Pennsylvania and the University of California, Irvine. Full thickness 1.5×1.5 cm (2.25 cm^2) excisional wounds were inflicted on the backs of three to eight week-old mice as described in M. Ito et al., Nature 447:316 (2007).
Whole mount wounds were stained for Oil Red O and the number of regenerated hair follicles was counted from the skin surface, where each new hair is clearly visible. The number of new adipocytes was counted from the underside, where each adipocyte is clearly visible due to their very large size and prominent marking by Oil Red O dye. For each experiment, adipose tissue regeneration was quantified as the ratio of all new adipocytes/all new hair follicles (aka adipocyte/hair follicle index). Some wound samples (FIG. 2B) were stained for lacZ and photographed, then additionally stained for Oil Red O and photographed again. Adipocytes were then micro-dissected and photographed under stereomicroscope.

Zfp423 = Zfp423 reporter (lacZ) activity in wounds of Zfp423-lacZ mice; format: in vivo, mouse; settings: 2 mg/kg during wound healing, day 21
Procedure: FIG. 25: BMP signaling is necessary for Zfp423 reporter activation in wounds. […] Asterisk marks lacZ-positive dermal papillae of new hair follicles. Size bars: 100 μm.
as §1

human keloid scar cells = assay: Primary human adipogenic cell culture, keloid scar cells; format: cell-based; settings: 20 ng/ml hBMP4 for 48 hours, then adipogenic cocktail; for adipogenic conversion of keloid scar cells (Oil Red O positive adipocytes): n=3
Procedure: (§2) All human experiments were carried out in accordance with the guidelines of the IRB of the University of California, Irvine, Children's Hospital Los Angeles and Kyungpook National University. Keloid fibroblasts were isolated as described in Y. S. Lee et al., Wound repair and regeneration: official publication of the Wound Healing Society [and] the European Tissue Repair Society 24:302 (2016). Human hypertrophic scar myofibroblasts were derived from clinical specimen biopsies and expanded in vitro as described in M. Vangipuram et al., Journal of visualized experiments: JoVE, e3779 (2013).
Primary human scar cells were cultured in DMEM/F12 media (Gibco) supplemented with 10% FBS (Fisher Scientific). Upon confluency, cells were switched to serum free DMEM/F12 media and treated with 20 ng/ml recombinant hBMP4 protein (R&D Systems) for 48 hours before differentiation. For the hair follicle co-culture, cells were grown in 12-well trans-well plates. Once near confluency, medium was changed to William's E hair follicle organ culture medium, and 40 microdissected human scalp anagen hair follicles were co-cultured on top of the membrane insert in each well for 5 days. Control cells were cultured in William's E medium without hair follicles. In all cases, adipogenic differentiation was induced by adding adipogenic cocktail: DMEM/F12 media supplemented with 1% ITS premix (insulin-transferrin-selenium; BD Biosciences), 0.5 mM isobutylmethylxanthine (Sigma), 0.1 μM cortisol (Sigma), 1 μM dexamethasome (Sigma), 0.2 nM triiodothyronine (Sigma), and 1 μM rosiglitazone (Cayman Chemical). After 4 days of induction, cells were changed to maintenance media: DMEM/F12 media supplemented with 1% ITS premix (BD Biosciences), 0.1 μM cortisol (Sigma), and 0.2 nM triiodothyronine (Sigma). For the hair follicle co-culture, cells were maintained in the induction media for 7 days. Lipid droplets were visualized after 7 days and cells were harvested for RNA isolation on day 10.
(§3) Total RNA was isolated using Trizol reagent (Thermo) or RNEasy Micro-Kit (Qiagen) as per manufacturer's protocol with minor modifications. Total RNA was reverse-transcribed and cDNA was amplified using PCR primers described in J. Ishibashi et al., Mol Cell Biol 32:2289 (2012). See Tables 3 and 4 for the sequences of primers used.

[2] = test system: human hypertrophic scar fibroblasts; assay: Primary human adipogenic cell culture, hypertrophic scar fibroblasts; format: cell-based; settings: n=3
Procedure: as §2
Primary human scar cells were cultured in DMEM/F12 media (Gibco) supplemented with 10% FBS (Fisher Scientific). Upon confluency, cells were switched to serum free DMEM/F12 media and treated with 20 ng/ml recombinant hBMP4 protein (R&D Systems) for 48 hours before differentiation. For the hair follicle co-culture, cells were grown in 12-well trans-well plates. Once near confluency, medium was changed to William's E hair follicle organ culture medium, and 40 microdissected human scalp anagen hair follicles were co-cultured on top of the membrane insert in each well for 5 days. Control cells were cultured in William's E medium without hair follicles. […]

[3] = test system: mouse dermal cells isolated from day 15 wounds; assay: Primary mouse adipogenic cell culture; format: cell-based; settings: 6 ng/ml hBMP4 or 25 ng/ml hBMP2 with differentiation media
Procedure: Primary scar cells were isolated from day 15 wounds as described in D. Gay et al., Nature medicine 19:916 (2013) with minor modifications. Single cell fractions were created and cultured to confluence in high-glucose to DMEM (Gibco) supplemented with 10% FBS (Atlanta Biologicals) and […] Pen/Strep cocktail (Gibco). […] After three days, cells differentiation media was switched to adipocyte maintenance media (Cell Solutions). Cells were cultured in a water-jacketed incubator at 37° C. with 5% CO2 output
as §3

[4] = listed as small-molecule inhibitor of SMAD1/5/8 phosphorylation

| Molecule | Adipocyte/hair index (new adipocyte/follicle ratio) [1] | Adipocyte/hair index (new adipocyte/follicle ratio) [1, 4] | regeneration of new adipocytes in hair-bearing wounds [1] | regeneration of new adipocytes in hair-bearing wounds [1, 4] | Zfp423 activity (reporter) in dermal cells surrounding new hair follicles and in blood vessels (Zfp423) | Zfp423 activity (reporter) in dermal cells surrounding new hair follicles and in blood vessels (Zfp423; [4]) | expression of adipogenic genes ZNF423, ADIPOQ, ADIPOSIN, PPARG2, FABP4 (qRT-PCR) (human keloid scar cells) | expression of adipogenic genes ZNF423, ADIPOQ, ADIPOSIN, PPARG2, FABP4 (qRT-PCR) (human keloid scar cells; listed as hBMP4) | adipogenic conversion of keloid scar cells (Oil Red O positive adipocytes) (human keloid scar cells) | adipogenic conversion of keloid scar cells (Oil Red O positive adipocytes) (human keloid scar cells; listed as hBMP4) | qRT-PCR against select adipogenic genes ([2]; following hBMP4 treatment) | adipogenic potential of hypertrophic scar fibroblasts (Oil Red O) ([2]; hBMP4 for 48 hours prior to differentiation, vs non-hBMP4 control) | activation of adipocyte-specific genes (qRT-PCR) [3] | reprogramming of cultured mouse dermal cells into adipocytes ([3]; without BMP non-adipogenic) |
| --- | --- | --- | --- | --- | --- | --- | --- | --- | --- | --- | --- | --- | --- | --- |
| c1ccc2c(-c3cnn4cc(-c5ccc(N6CCNCC6)cc5)cnc34)ccnc2c1 [LDN-193189] | 0.58 ± 0.35 | 0.58+/−0.35 | near complete loss of regenerated adipocytes | largely prevented new adipocyte regeneration | significantly downregulated | downregulated |  |  |  |  |  |  |  |  |
| B1 |  |  |  |  |  |  | expression of adipocyte markers; also recorded: activation of adipocyte-specific genes | upregulation of adipogenic genes | induced their conversion to lipid-laden adipocytes; also recorded: induced their reprogramming into adipocytes | consistently induced adipogenic conversion | only ADIPISIN becomes significantly upregulated | does not induce an increase in adipogenic potential | activation of adipocyte-specific genes | induced their reprogramming into adipocytes |

Reference: patent US12214014B2, “Methods for scar reduction by converting scar fibroblasts into adipocytes with hair follicle-derived signals” (The Trustees of the University of Pennsylvania, priority 2017, dated 2025)
